Experimental data: PMC12496170

Biological target: Spike-Accum bioconjugate (Accum-bioconjugated Sp protein) (SARS-CoV-2) (UniProt P0DTC2)
Assay: cryo-EM structure

“Spike-Accum bioconjugate (Accum-bioconjugated Sp protein) (from UniProt P0DTC2 14-1213)” showed a stoichiometry N of 3.
